System: Escherichia coli TOP10
Test: shrunken log2 fold change of peptide-encoding DNA abundance (4.5 h post-induction vs induction); higher = less antimicrobial activity (less host growth inhibition)
Conditions: time post-induction: 4.5 h; library: site-saturation at positions 5, 18, 19, 20
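Note: peptides expressed intracellularly from a pBAD plasmid library in pooled LB shake-flask culture, induced with 0.3% L-arabinose, DNA abundance read by NGS, three biological replicates, DESeq2 with apeglm shrinkage.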

RRIRQRPPRLPRPRPRPAPGPRP
shrunken log2 fold change: 0.417

RRIRKRPPRLPRPRPRPYGNPRP
shrunken log2 fold change: -0.135

RRIRTRPPRLPRPRPRPVGHPRP
shrunken log2 fold change: -0.00107

RRIRHRPPRLPRPRPRPPSSPRP
shrunken log2 fold change: -0.00863

RRIRYRPPRLPRPRPRPQILPRP
shrunken log2 fold change: -0.0395

RRIRMRPPRLPRPRPRPSATPRP
shrunken log2 fold change: 3.21

RRIRNRPPRLPRPRPRPIMPPRP
shrunken log2 fold change: -0.225

RRIRIRPPRLPRPRPRPSKMPRP
shrunken log2 fold change: -1.18

RRIRIRPPRLPRPRPRPGMNPRP
shrunken log2 fold change: -0.0956

RRIRERPPRLPRPRPRPERPPRP
shrunken log2 fold change: -0.0522

RRIRDRPPRLPRPRPRPSIHPRP
shrunken log2 fold change: -0.123

RRIRSRPPRLPRPRPRPIRRPRP
shrunken log2 fold change: 0.011

RRIRERPPRLPRPRPRPYKPPRP
shrunken log2 fold change: -0.116

RRIRFRPPRLPRPRPRPNKGPRP
shrunken log2 fold change: -0.606

RRIRWRPPRLPRPRPRPRASPRP
shrunken log2 fold change: 0.852

RRIRDRPPRLPRPRPRPLCLPRP
shrunken log2 fold change: 0.0562

RRIRFRPPRLPRPRPRPLPIPRP
shrunken log2 fold change: 0.165

RRIRLRPPRLPRPRPRPLRTPRP
shrunken log2 fold change: 1.18

RRIRMRPPRLPRPRPRPFDTPRP
shrunken log2 fold change: -0.0634

RRIRSRPPRLPRPRPRPSRPPRP
shrunken log2 fold change: 1.28

RRIRARPPRLPRPRPRPDSDPRP
shrunken log2 fold change: -0.0357

RRIRLRPPRLPRPRPRPLSSPRP
shrunken log2 fold change: -0.0447

RRIRKRPPRLPRPRPRPFWDPRP
shrunken log2 fold change: -0.0842

RRIRLRPPRLPRPRPRPAQAPRP
shrunken log2 fold change: -0.0635

RRIRIRPPRLPRPRPRPRLYPRP
shrunken log2 fold change: 0.0739

RRIRGRPPRLPRPRPRPQEYPRP
shrunken log2 fold change: -0.00348

RRIRERPPRLPRPRPRPGYQPRP
shrunken log2 fold change: -0.00905

RRIRLRPPRLPRPRPRPALNPRP
shrunken log2 fold change: -0.0159

RRIRPRPPRLPRPRPRPWCVPRP
shrunken log2 fold change: -0.133

RRIRLRPPRLPRPRPRPYPWPRP
shrunken log2 fold change: -0.141

RRIRCRPPRLPRPRPRPTLHPRP
shrunken log2 fold change: -0.0488

RRIRLRPPRLPRPRPRPITTPRP
shrunken log2 fold change: -0.283

RRIRRRPPRLPRPRPRPYMAPRP
shrunken log2 fold change: -0.69

RRIRARPPRLPRPRPRPCSAPRP
shrunken log2 fold change: 0.356

RRIRNRPPRLPRPRPRPVRCPRP
shrunken log2 fold change: 0.0872

RRIRHRPPRLPRPRPRPIHIPRP
shrunken log2 fold change: -0.733

RRIRNRPPRLPRPRPRPTDEPRP
shrunken log2 fold change: 0.0528

RRIRYRPPRLPRPRPRPAMRPRP
shrunken log2 fold change: 0.372

RRIRHRPPRLPRPRPRPGDAPRP
shrunken log2 fold change: 0.0297

RRIRQRPPRLPRPRPRPQMTPRP
shrunken log2 fold change: -0.106

RRIRLRPPRLPRPRPRPHLHPRP
shrunken log2 fold change: -0.424

RRIRIRPPRLPRPRPRPSGGPRP
shrunken log2 fold change: 0.0858

RRIRKRPPRLPRPRPRPTRNPRP
shrunken log2 fold change: 0.547

RRIRYRPPRLPRPRPRPLDYPRP
shrunken log2 fold change: -1.11

RRIRKRPPRLPRPRPRPHFIPRP
shrunken log2 fold change: 0.136

RRIRDRPPRLPRPRPRPLVSPRP
shrunken log2 fold change: 0.469

RRIRERPPRLPRPRPRPDVVPRP
shrunken log2 fold change: 0.015

RRIRIRPPRLPRPRPRPFTEPRP
shrunken log2 fold change: 0.0282

RRIRSRPPRLPRPRPRPKVRPRP
shrunken log2 fold change: 0.0559

RRIRTRPPRLPRPRPRPIREPRP
shrunken log2 fold change: -0.0125
